The values that follow come from publication PMC8571081.

Experiment [1] concerns the target Recombinant mouse IL-12Rβ2-Fc chimera protein (mouse) (UniProt P97378). The experiment can be described thus: SPR; IL-23R-Fc and IL-12Rβ2-Fc captured on a Protein A chip (~150 RU); HIL-12 (0.3-5 nM) or HIL-23 (15-1000 nM) variants injected at 30 μl/min; 25 °C, PBS pH 7.4, 0.05% P20; multi-cycle; 1:1 binding model; Biacore X100. (In general: Surface plasmon resonance follows binding to a sensor surface in real time, without labels.)

Experiment [2] concerns the target Recombinant mouse IL-23R-Fc chimera protein (mouse) (UniProt Q8K4B4). The experiment is described as above.
Sequence of UniProt Q8K4B4 (Q8K4B4 24-374, change not shown): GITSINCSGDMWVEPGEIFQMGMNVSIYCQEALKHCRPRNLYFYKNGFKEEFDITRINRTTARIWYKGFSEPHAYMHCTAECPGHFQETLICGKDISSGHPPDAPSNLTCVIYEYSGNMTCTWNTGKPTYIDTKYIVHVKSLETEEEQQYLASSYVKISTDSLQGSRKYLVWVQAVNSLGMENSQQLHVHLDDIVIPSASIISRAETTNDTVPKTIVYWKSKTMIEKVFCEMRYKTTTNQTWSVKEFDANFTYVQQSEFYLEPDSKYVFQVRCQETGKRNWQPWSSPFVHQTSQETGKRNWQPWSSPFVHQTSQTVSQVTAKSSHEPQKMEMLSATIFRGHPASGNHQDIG

Sequence of UniProt P97378 (P97378 24-637, stated change not applied): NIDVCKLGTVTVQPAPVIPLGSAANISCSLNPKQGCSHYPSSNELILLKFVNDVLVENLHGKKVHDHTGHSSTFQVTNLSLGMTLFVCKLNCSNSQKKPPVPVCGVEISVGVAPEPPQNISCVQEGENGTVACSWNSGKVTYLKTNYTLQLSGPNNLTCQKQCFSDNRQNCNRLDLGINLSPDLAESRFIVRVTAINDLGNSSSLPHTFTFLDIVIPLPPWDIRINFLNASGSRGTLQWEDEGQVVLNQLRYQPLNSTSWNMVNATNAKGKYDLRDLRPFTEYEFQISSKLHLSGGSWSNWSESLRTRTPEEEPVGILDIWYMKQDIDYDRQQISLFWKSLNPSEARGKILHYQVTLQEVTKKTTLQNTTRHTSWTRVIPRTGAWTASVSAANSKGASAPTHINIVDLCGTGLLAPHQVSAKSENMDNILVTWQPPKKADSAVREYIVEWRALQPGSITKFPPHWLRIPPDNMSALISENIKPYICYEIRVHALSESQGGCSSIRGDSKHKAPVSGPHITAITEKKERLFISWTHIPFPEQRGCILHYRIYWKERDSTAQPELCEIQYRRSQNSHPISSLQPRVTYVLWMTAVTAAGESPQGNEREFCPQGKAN

A word on the Kd: it is the concentration at which binding is half-saturated. Usually koff stands for the rate constant with which the complex falls apart. The term kon denotes the rate constant with which the complex forms. Consider “HIL-12D36K/W37K/T38K, purified with Twin-Strep-tag (ligand)”, for which, in experiment [1], the Kd stood at 0.84 nM, the koff came out at 0.0027 s⁻¹ and the on-rate (kon) amounted to 3.2e+06 M⁻¹ s⁻¹.
With “HIL-23D36K/W37K/T38K, purified with Twin-Strep-tag (from UniProt P43432 23-335) (ligand)”, in experiment [2], the equilibrium dissociation constant (Kd) was 57 nM, the koff is 0.0011 s⁻¹ and the kon turned out to be 19000 M⁻¹ s⁻¹.
As for “murine Hyper-IL-12 (HIL-12), purified with Twin-Strep-tag (ligand)”, in experiment [1], the Kd stood at 0.987 nM, the off-rate constant (koff) came out at 0.0019 s⁻¹ and the kon came out at 1.9e+06 M⁻¹ s⁻¹.
For the substance “murine Hyper-IL-23 (HIL-23), purified with Twin-Strep-tag (from UniProt P43432 23-335) (ligand)”, in experiment [2], the Kd is 40 nM, the koff stood at 0.0012 s⁻¹ and the kon stood at 30000 M⁻¹ s⁻¹.
